Reference: patent US11819556B2, “Stabilized compositions of radionuclides and uses thereof” (RayzeBio, Inc., priority 2021, dated 2023)

Experiments:
Format in all cases: physicochemical
[1] = Sodium ascorbate concentration optimization: radio-TLC purity; settings: 25° C.
Description: (§1) The mixture was kept at room temperature (25° C.). At different time points, radioactive components of the formulated dose were measured by radio-TLC as described in the table below: […]

[2] = DTPA concentration optimization: radio-TLC purity; settings: 20 μCi/ml, 100 mM sodium ascorbate pH 5.80, 25° C.
Description: as §1

[3] = Radioactivity concentration optimization: radio-TLC purity; settings: 100 mM sodium ascorbate pH 5.80, 0.05 mg/ml DTPA, 25° C.
Description: The mixture was kept at room temperature (25° C.) and protected from light to prevent photodegradation. At different time points, purity of [^225Ac]Ac-DOTA-TATE in the formulated dose were measured by radio-TLC as described in the table below: […]

(2,2′,2″-(10-(2-4(R)-1-(((4R,7S,10S,13R,16S,19R)-13-((1H-indol-3-yl)methyl)-10-(4-aminobutyl)-4-(((1S,2R)-1-carboxy-2-hydroxypropyl)carbamoyl)-16-(4-hydroxybenzyl)-7-((R)-1-hydroxyethyl)-6,9,12,15,18-pentaoxo-1,2-dithia-5,8,11,14,17-pentaazacycloicosan-19-yl)amino)-1-oxo-3-phenylpropan-2-yl)amino)-2-oxoethyl)-1,4,7,10-tetraazacyclododecane-1,4,7-triyl)triacetate; actinium-225(3+)) [[^225Ac]Ac-DOTA-TATE]
Percentage of ^225Ac present in [^225Ac]Ac-DOTA-TATE ([1]; sodium ascorbate 10 mM, 24 hours, Radioactivity concentration at 1 mCi/ml): 92.21%
Percentage of ^225Ac present in [^225Ac]Ac-DOTA-TATE ([1]; sodium ascorbate 10 mM, 48 hours, Radioactivity concentration at 1 mCi/ml): 86.11%
Percentage of ^225Ac present in [^225Ac]Ac-DOTA-TATE ([1]; sodium ascorbate 100 mM, 0 hour, 0.02 mCi/ml, 0.05 mg/ml DTPA): 99.15%
Percentage of ^225Ac present in [^225Ac]Ac-DOTA-TATE ([1]; sodium ascorbate 100 mM, 24 hours, 0.02 mCi/ml, 0.05 mg/ml DTPA): 98.76%
Percentage of ^225Ac present in [^225Ac]Ac-DOTA-TATE ([1]; sodium ascorbate 100 mM, 48 hours, 0.02 mCi/ml, 0.05 mg/ml DTPA): 96.94%
Percentage of ^225Ac present in [^225Ac]Ac-DOTA-TATE ([1]; sodium ascorbate 100 mM, 72 hours, 0.02 mCi/ml, 0.05 mg/ml DTPA): 96.16%
Percentage of ^225Ac present in [^225Ac]Ac-DOTA-TATE ([1]; sodium ascorbate 100 mM, 96 hours, 0.02 mCi/ml, 0.05 mg/ml DTPA): 95.84%
Percentage of ^225Ac present in [^225Ac]Ac-DOTA-TATE ([1]; sodium ascorbate 100 mM, 120 hours, 0.02 mCi/ml, 0.05 mg/ml DTPA): 95.44%
Percentage of ^225Ac present in [^225Ac]Ac-DOTA-TATE ([1]; sodium ascorbate 100 mM, 144 hours, 0.02 mCi/ml, 0.05 mg/ml DTPA): 95.34%
Percentage of ^225Ac present in [^225Ac]Ac-DOTA-TATE ([1]; sodium ascorbate 200 mM, 0 hour, 0.02 mCi/ml, 0.05 mg/ml DTPA): 99.22%
Percentage of ^225Ac present in [^225Ac]Ac-DOTA-TATE ([1]; sodium ascorbate 200 mM, 24 hours, 0.02 mCi/ml, 0.05 mg/ml DTPA): 98.16%
Percentage of ^225Ac present in [^225Ac]Ac-DOTA-TATE ([1]; sodium ascorbate 200 mM, 48 hours, 0.02 mCi/ml, 0.05 mg/ml DTPA): 97.12%
Percentage of ^225Ac present in [^225Ac]Ac-DOTA-TATE ([1]; sodium ascorbate 200 mM, 72 hours, 0.02 mCi/ml, 0.05 mg/ml DTPA): 95.63%
Percentage of ^225Ac present in [^225Ac]Ac-DOTA-TATE ([1]; sodium ascorbate 200 mM, 96 hours, 0.02 mCi/ml, 0.05 mg/ml DTPA): 95.51%
Percentage of ^225Ac present in [^225Ac]Ac-DOTA-TATE ([1]; sodium ascorbate 200 mM, 120 hours, 0.02 mCi/ml, 0.05 mg/ml DTPA): 94.38%
Percentage of ^225Ac present in [^225Ac]Ac-DOTA-TATE ([1]; sodium ascorbate 200 mM, 144 hours, 0.02 mCi/ml, 0.05 mg/ml DTPA): 91.27%
Percentage of ^225Ac present in [^225Ac]Ac-DOTA-TATE ([2]; DTPA 0.05 mg/ml, 0 hour): 98.74%
Percentage of ^225Ac present in [^225Ac]Ac-DOTA-TATE ([2]; DTPA 0.05 mg/ml, 24 hours): 97.67%
Percentage of ^225Ac present in [^225Ac]Ac-DOTA-TATE ([2]; DTPA 0.05 mg/ml, 48 hours): 95.34%
Percentage of ^225Ac present in [^225Ac]Ac-DOTA-TATE ([2]; DTPA 0.05 mg/ml, 72 hours): 94.62%
Percentage of ^225Ac present in [^225Ac]Ac-DOTA-TATE ([2]; DTPA 0.1 mg/ml, 0 hour): 97.52%
Percentage of ^225Ac present in [^225Ac]Ac-DOTA-TATE ([2]; DTPA 0.1 mg/ml, 24 hours): 98.30%
Percentage of ^225Ac present in [^225Ac]Ac-DOTA-TATE ([2]; DTPA 0.1 mg/ml, 48 hours): 96.74%
Percentage of ^225Ac present in [^225Ac]Ac-DOTA-TATE ([2]; DTPA 0.1 mg/ml, 72 hours): 94.36%
Percentage of ^225Ac present in [^225Ac]Ac-DOTA-TATE ([2]; DTPA 0.3 mg/ml, 0 hour): 98.06%
Percentage of ^225Ac present in [^225Ac]Ac-DOTA-TATE ([2]; DTPA 0.3 mg/ml, 24 hours): 97.19%
Percentage of ^225Ac present in [^225Ac]Ac-DOTA-TATE ([2]; DTPA 0.3 mg/ml, 48 hours): 96.11%
Percentage of ^225Ac present in [^225Ac]Ac-DOTA-TATE ([2]; DTPA 0.3 mg/ml, 72 hours): 93.60%
Percentage of ^225Ac present in [^225Ac]Ac-DOTA-TATE ([2]; DTPA 0.5 mg/ml, 0 hour): 98.40%
Percentage of ^225Ac present in [^225Ac]Ac-DOTA-TATE ([2]; DTPA 0.5 mg/ml, 24 hours): 97.28%
Percentage of ^225Ac present in [^225Ac]Ac-DOTA-TATE ([2]; DTPA 0.5 mg/ml, 48 hours): 95.07%
Percentage of ^225Ac present in [^225Ac]Ac-DOTA-TATE ([2]; DTPA 0.5 mg/ml, 72 hours): 92.73%
Percentage of ^225Ac present in [^225Ac]Ac-DOTA-TATE ([2]; DTPA 0.8 mg/ml, 0 hour): 98.02%
Percentage of ^225Ac present in [^225Ac]Ac-DOTA-TATE ([2]; DTPA 0.8 mg/ml, 24 hours): 97.60%
Percentage of ^225Ac present in [^225Ac]Ac-DOTA-TATE ([2]; DTPA 0.8 mg/ml, 48 hours): 96.57%
Percentage of ^225Ac present in [^225Ac]Ac-DOTA-TATE ([2]; DTPA 0.8 mg/ml, 72 hours): 93.11%
Percentage of ^225Ac present in [^225Ac]Ac-DOTA-TATE ([2]; DTPA 1.0 mg/ml, 0 hour): 98.25%
Percentage of ^225Ac present in [^225Ac]Ac-DOTA-TATE ([2]; DTPA 1.0 mg/ml, 24 hours): 97.37%
Percentage of ^225Ac present in [^225Ac]Ac-DOTA-TATE ([2]; DTPA 1.0 mg/ml, 48 hours): 96.14%
Percentage of ^225Ac present in [^225Ac]Ac-DOTA-TATE ([2]; DTPA 1.0 mg/ml, 72 hours): 94.14%
Percentage of ^225Ac present in [^225Ac]Ac-DOTA-TATE ([3]; 15 μCi/ml, 0 hour): 99.37%
Percentage of ^225Ac present in [^225Ac]Ac-DOTA-TATE ([3]; 15 μCi/ml, 24 hours): 96.92%
Percentage of ^225Ac present in [^225Ac]Ac-DOTA-TATE ([3]; 15 μCi/ml, 48 hours): 96.08%
Percentage of ^225Ac present in [^225Ac]Ac-DOTA-TATE ([3]; 15 μCi/ml, 72 hours): 98.74%
Percentage of ^225Ac present in [^225Ac]Ac-DOTA-TATE ([3]; 15 μCi/ml, 96 hours): 94.83%
Percentage of ^225Ac present in [^225Ac]Ac-DOTA-TATE ([3]; 15 μCi/ml, 120 hours): 93.49%
Percentage of ^225Ac present in [^225Ac]Ac-DOTA-TATE ([3]; 32 μCi/ml, 0 hour): 99.39%
Percentage of ^225Ac present in [^225Ac]Ac-DOTA-TATE ([3]; 32 μCi/ml, 24 hours): 97.92%
Percentage of ^225Ac present in [^225Ac]Ac-DOTA-TATE ([3]; 32 μCi/ml, 48 hours): 97.13%
Percentage of ^225Ac present in [^225Ac]Ac-DOTA-TATE ([3]; 32 μCi/ml, 72 hours): 95.31%
Percentage of ^225Ac present in [^225Ac]Ac-DOTA-TATE ([3]; 32 μCi/ml, 96 hours): 92.52%
Percentage of ^225Ac present in [^225Ac]Ac-DOTA-TATE ([3]; 32 μCi/ml, 120 hours): 85.90%
Percentage of ^225Ac present in [^225Ac]Ac-DOTA-TATE ([3]; 68 μCi/ml, 0 hour): 99.06%
Percentage of ^225Ac present in [^225Ac]Ac-DOTA-TATE ([3]; 68 μCi/ml, 24 hours): 98.22%
Percentage of ^225Ac present in [^225Ac]Ac-DOTA-TATE ([3]; 68 μCi/ml, 48 hours): 95.93%
Percentage of ^225Ac present in [^225Ac]Ac-DOTA-TATE ([3]; 68 μCi/ml, 72 hours): 95.36%
Percentage of ^225Ac present in [^225Ac]Ac-DOTA-TATE ([3]; 68 μCi/ml, 96 hours): 86.92%
Percentage of ^225Ac present in [^225Ac]Ac-DOTA-TATE ([3]; 126 μCi/ml, 0 hour): 99.11%
Percentage of ^225Ac present in [^225Ac]Ac-DOTA-TATE ([3]; 126 μCi/ml, 24 hours): 95.77%
Percentage of ^225Ac present in [^225Ac]Ac-DOTA-TATE ([3]; 126 μCi/ml, 48 hours): 84.99%
Percentage of ^225Ac present in [^225Ac]Ac-DOTA-TATE ([3]; 301 μCi/ml, 0 hour): 99.09%
Percentage of ^225Ac present in [^225Ac]Ac-DOTA-TATE ([3]; 301 μCi/ml, 24 hours): 97.53%
Percentage of ^225Ac present in [^225Ac]Ac-DOTA-TATE ([3]; 301 μCi/ml, 48 hours): 88.78%
Percentage of ^225Ac present in [^225Ac]Ac-DOTA-TATE ([3]; 550 μCi/ml, 0 hour): 98.87%
Percentage of ^225Ac present in [^225Ac]Ac-DOTA-TATE ([3]; 550 μCi/ml, 24 hours): 97.04%
Percentage of ^225Ac present in [^225Ac]Ac-DOTA-TATE ([3]; 550 μCi/ml, 48 hours): 85.63%
